T1: FcγRIIb extracellular domain with C-terminal His tag (human, UniProt P31994 43-217)
T1 construct: extracellular domain; also called FcgRIIb; 2b; not shown: His tag at the C terminus
T1 sequence (looked up): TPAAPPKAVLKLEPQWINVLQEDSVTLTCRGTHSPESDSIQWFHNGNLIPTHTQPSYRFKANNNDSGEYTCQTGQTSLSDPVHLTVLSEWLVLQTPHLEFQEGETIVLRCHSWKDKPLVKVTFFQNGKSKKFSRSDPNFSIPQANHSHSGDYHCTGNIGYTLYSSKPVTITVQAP

T2: FcγRIIa R (human FcγRIIa, allotype R, Arg at position 131), extracellular domain with C-terminal His tag (human, UniProt P12318 34-217)
T2 construct: extracellular domain; expressed in FreeStyle293 cells; analyte in Biacore; also called 2aR; FcgRIIa R
T2 sequence (looked up): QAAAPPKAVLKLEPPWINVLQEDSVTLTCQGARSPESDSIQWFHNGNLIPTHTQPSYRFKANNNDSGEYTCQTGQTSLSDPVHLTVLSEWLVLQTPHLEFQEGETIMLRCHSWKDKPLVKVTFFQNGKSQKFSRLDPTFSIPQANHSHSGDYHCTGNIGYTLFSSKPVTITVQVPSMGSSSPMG

B1: GpH7-A5/GpH7-B3 variant Y300_14T/GpL16-k0 (antibody, human IgG1, kappa)
heavy 1: not shown
heavy 2: not shown
light: DIVMTQSPLSLPVTPGEPASISCQASESLVHSNRNTYLHWYLQKPGQSPQLLIYKVSNRFSGVPDRFSGSGSGTDFTLKISRVEAEDVGVYYCSQNTHVPPTFGQGTKVEIERTVAAPSVFIFPPSDEQLKSGTASVVCLLNNFYPREAKVQWKVDNALQSGNSQESVTEQDSKDSTYSLSSTLTLSKADYEKHKVYACEVTHQGLSSPVTKSFNRGEC
notes: position is EU numbering; also called He Ab
B2: GpH7-A5/GpH7-B3 variant S337_18N/GpL16-k0 (antibody, human IgG1, kappa)
heavy 1: not shown
heavy 2: not shown
light: B1 light
notes: heterodimerized antibody, mutation in one H chain only; also called He Ab
B3: GpH7-A5/GpH7-B3 variant T335_05P/GpL16-k0 (antibody, human IgG1, kappa)
heavy 1: not shown
heavy 2: not shown
light: B1 light
notes: as for B2
B4: GpH7-A5/GpH7-B3 variant S337_16H/GpL16-k0 (antibody, human IgG1, kappa)
heavy 1: not shown
heavy 2: not shown
light: B1 light
notes: as for B2
B5: GpH7-A5/GpH7-B3 variant T335_19Q/GpL16-k0 (antibody, human IgG1, kappa)
heavy 1: not shown
heavy 2: not shown
light: B1 light
notes: as for B2
B6: GpH7-A5/GpH7-B3 variant P331_14T/GpL16-k0 (antibody, human IgG1, kappa)
heavy 1: not shown
heavy 2: not shown
light: B1 light
notes: as for B2
B7: GpH7-A5/GpH7-B3 variant T335_18N/GpL16-k0 (antibody, human IgG1, kappa)
heavy 1: not shown
heavy 2: not shown
light: B1 light
notes: as for B2
B8: GpH7-A5/GpH7-B3 variant P331_07I/GpL16-k0 (antibody, human IgG1, kappa)
heavy 1: not shown
heavy 2: not shown
light: B1 light
notes: as for B2
B9: GpH7-A5/GpH7-B3 variant P331_09D/GpL16-k0 (antibody, human IgG1, kappa)
heavy 1: not shown
heavy 2: not shown
light: B1 light
notes: as for B2
B10: GpH7-A5/GpH7-B3 variant S337_08L/GpL16-k0 (antibody, human IgG1, kappa)
heavy 1: not shown
heavy 2: not shown
light: B1 light
notes: as for B2
B11: GpH7-A5/GpH7-B3 variant P331_18N/GpL16-k0 (antibody, human IgG1, kappa)
heavy 1: not shown
heavy 2: not shown
light: B1 light
notes: as for B2
B12: GpH7-A5/GpH7-B3 variant T335_20W/GpL16-k0 (antibody, human IgG1, kappa)
heavy 1: not shown
heavy 2: not shown
light: B1 light
notes: as for B2
B13: GpH7-A5/GpH7-B3 variant S337_12R/GpL16-k0 (antibody, human IgG1, kappa)
heavy 1: not shown
heavy 2: not shown
light: B1 light
notes: as for B2
B14: GpH7-A5/GpH7-B3 variant T335_10E/GpL16-k0 (antibody, human IgG1, kappa)
heavy 1: not shown
heavy 2: not shown
light: B1 light
notes: as for B2
B15: GpH7-A5/GpH7-B3 variant T335_07I/GpL16-k0 (antibody, human IgG1, kappa)
heavy 1: not shown
heavy 2: not shown
light: B1 light
notes: as for B2
B16: GpH7-A5/GpH7-B3 variant T335_13S/GpL16-k0 (antibody, human IgG1, kappa)
heavy 1: not shown
heavy 2: not shown
light: B1 light
notes: as for B2
B17: GpH7-A5/GpH7-B3 variant S239_06M/GpL16-k0 (antibody, human IgG1, kappa)
heavy 1: not shown
heavy 2: not shown
light: B1 light
notes: as for B2
B18: GpH7-A5/GpH7-B3 variant P331_10E/GpL16-k0 (antibody, human IgG1, kappa)
heavy 1: not shown
heavy 2: not shown
light: B1 light
notes: as for B2
B19: GpH7-A5/GpH7-B3 variant Y296_09D/GpL16-k0 (antibody, human IgG1, kappa)
heavy 1: not shown
heavy 2: not shown
light: B1 light
notes: as for B2
B20: GpH7-A5/GpH7-B3 variant S337_03V/GpL16-k0 (antibody, human IgG1, kappa)
heavy 1: not shown
heavy 2: not shown
light: B1 light
notes: as for B2
B21: GpH7-A5/GpH7-B3 variant S337_15Y/GpL16-k0 (antibody, human IgG1, kappa)
heavy 1: not shown
heavy 2: not shown
light: B1 light
notes: as for B2
B22: GpH7-A5/GpH7-B3 variant S337_19Q/GpL16-k0 (antibody, human IgG1, kappa)
heavy 1: not shown
heavy 2: not shown
light: B1 light
notes: as for B2
B23: GpH7-A5/GpH7-B3 variant Y296_10E/GpL16-k0 (antibody, human IgG1, kappa)
heavy 1: not shown
heavy 2: not shown
light: B1 light
notes: as for B2
B24: GpH7-A5/GpH7-B3 variant T335_12R/GpL16-k0 (antibody, human IgG1, kappa)
heavy 1: not shown
heavy 2: not shown
light: B1 light
notes: as for B2
B25: GpH7-A5/GpH7-B3 variant Y296_04F/GpL16-k0 (antibody, human IgG1, kappa)
heavy 1: not shown
heavy 2: not shown
light: B1 light
notes: as for B2
B26: GpH7-A5/GpH7-B3 variant V266_06M/GpL16-k0 (antibody, human IgG1, kappa)
heavy 1: not shown
heavy 2: not shown
light: B1 light
notes: as for B2
B27: GpH7-A5/GpH7-B3 variant S337_20W/GpL16-k0 (antibody, human IgG1, kappa)
heavy 1: not shown
heavy 2: not shown
light: B1 light
notes: as for B2
B28: GpH7-A5/GpH7-B3 variant P331_06M/GpL16-k0 (antibody, human IgG1, kappa)
heavy 1: not shown
heavy 2: not shown
light: B1 light
notes: as for B2
B29: GpH7-A5/GpH7-B3 variant S337_11K/GpL16-k0 (antibody, human IgG1, kappa)
heavy 1: not shown
heavy 2: not shown
light: B1 light
notes: as for B2
B30: GpH7-A5/GpH7-B3 variant Q295_06M/GpL16-k0 (antibody, human IgG1, kappa)
heavy 1: not shown
heavy 2: not shown
light: B1 light
notes: as for B2
B31: GpH7-A5/GpH7-B3 variant T335_01G/GpL16-k0 (antibody, human IgG1, kappa)
heavy 1: not shown
heavy 2: not shown
light: B1 light
notes: as for B2
B32: GpH7-A5/GpH7-B3 variant S239_07I/GpL16-k0 (antibody, human IgG1, kappa)
heavy 1: not shown
heavy 2: not shown
light: B1 light
notes: as for B2
B33: GpH7-A5/GpH7-B3 variant S239_14T/GpL16-k0 (antibody, human IgG1, kappa)
heavy 1: not shown
heavy 2: not shown
light: B1 light
notes: as for B2
B34: GpH7-A5/GpH7-B3 variant T335_16H/GpL16-k0 (antibody, human IgG1, kappa)
heavy 1: not shown
heavy 2: not shown
light: B1 light
notes: as for B2
B35: GpH7-A5/GpH7-B3 variant T335_02A/GpL16-k0 (antibody, human IgG1, kappa)
heavy 1: not shown
heavy 2: not shown
light: B1 light
notes: as for B2
B36: GpH7-A5/GpH7-B3 variant P331_08L/GpL16-k0 (antibody, human IgG1, kappa)
heavy 1: not shown
heavy 2: not shown
light: B1 light
notes: as for B2
B37: GpH7-A5/GpH7-B3 variant S337_10E/GpL16-k0 (antibody, human IgG1, kappa)
heavy 1: not shown
heavy 2: not shown
light: B1 light
notes: as for B2
B38: GpH7-A5/GpH7-B3 variant S337_04F/GpL16-k0 (antibody, human IgG1, kappa)
heavy 1: not shown
heavy 2: not shown
light: B1 light
notes: as for B2
B39: GpH7-A5/GpH7-B3 variant P331_13S/GpL16-k0 (antibody, human IgG1, kappa)
heavy 1: not shown
heavy 2: not shown
light: B1 light
notes: as for B2
B40: GpH7-A5/GpH7-B3 variant Q295_10E/GpL16-k0 (antibody, human IgG1, kappa)
heavy 1: not shown
heavy 2: not shown
light: B1 light
notes: as for B2
B41: GpH7-A5/GpH7-B3 variant S337_06M/GpL16-k0 (antibody, human IgG1, kappa)
heavy 1: not shown
heavy 2: not shown
light: B1 light
notes: as for B2
B42: GpH7-A5/GpH7-B3 variant S337_07I/GpL16-k0 (antibody, human IgG1, kappa)
heavy 1: not shown
heavy 2: not shown
light: B1 light
notes: as for B2
B43: GpH7-A5/GpH7-B3 variant T335_15Y/GpL16-k0 (antibody, human IgG1, kappa)
heavy 1: not shown
heavy 2: not shown
light: B1 light
notes: as for B2
B44: GpH7-A5/GpH7-B3 variant S239_05P/GpL16-k0 (antibody, human IgG1, kappa)
heavy 1: not shown
heavy 2: not shown
light: B1 light
notes: as for B2
B45: GpH7-A5/GpH7-B3 variant Y296_07I/GpL16-k0 (antibody, human IgG1, kappa)
heavy 1: not shown
heavy 2: not shown
light: B1 light
notes: as for B2
B46: GpH7-A5/GpH7-B3 variant Y296_06M/GpL16-k0 (antibody, human IgG1, kappa)
heavy 1: not shown
heavy 2: not shown
light: B1 light
notes: as for B2
B47: GpH7-A5/GpH7-B3 variant S337_09D/GpL16-k0 (antibody, human IgG1, kappa)
heavy 1: not shown
heavy 2: not shown
light: B1 light
notes: as for B2

molecular target: T3, FcγRIIIa extracellular domain with C-terminal His tag (human, UniProt P08637 17-208); experiment: SPR (Biacore); ratio of He/Con_3a (FcγRIIIa) to He/Con_2b (FcγRIIb)
T3 construct: extracellular domain; also called FcgRIIIa; 3a; not shown: His tag at the C terminus
T3 sequence (P08637 17-208): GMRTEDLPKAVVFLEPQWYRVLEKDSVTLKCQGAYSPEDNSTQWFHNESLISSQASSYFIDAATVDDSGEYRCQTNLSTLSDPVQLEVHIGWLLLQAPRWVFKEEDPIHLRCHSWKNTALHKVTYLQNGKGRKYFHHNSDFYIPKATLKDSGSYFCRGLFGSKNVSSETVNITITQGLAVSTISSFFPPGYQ
Summary of the method: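 Biacore T100 SPR at 25 °C in HBS-EP+ running buffer. Antibodies were captured on antigen-peptide chips (amine-coupled on CM5 or biotinylated on SA) and each FcγR, diluted in running buffer, flowed as analyte; surfaces regenerated with 10 mM glycine-HCl, pH 1.5.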

He_3a/2b (IIIa/IIb)	Binder
1.53 ratio	B1

molecular target: T1, FcγRIIb extracellular domain with …; experiment: SPR (Biacore), antibody captured, FcγR as analyte; He Ab binding / GpH7-A5/GpH7-B3/GpL16-k0 binding x 100

He/Con_2b (IIb binding)	Binder
55.6 relative, control = 100	B1

molecular target: T3, FcγRIIIa extracellular domain with …; experiment: as above

He/Con_3a (IIIa binding)	Binder
85.4 relative, control = 100	B1

molecular target: T2, FcγRIIa R (human FcγRIIa, allotype R, …); experiment: SPR (Biacore), relative binding vs GpH7-A5/GpH7-B3/GpL16-k0
Experimental: Analysis of interaction between objective antibody and the FcγR was carried out using Biacore T100 (GE Healthcare). HBS-EP+ (GE Healthcare) was used as the running buffer, and the measurement temperature was set to 25° C. Chips produced by immobilizing the antigen peptide by the amine coupling method to a Series S Sencor Chip CM5 (GE Healthcare), or alternatively, chips produced by allowing preliminarily biotinylated antigen peptides to interact with and immobilize onto a Series S Sensor Chip SA (certified) (GE Healthcare) were used. Antibodies of interest were captured onto an antigen peptide-immobilized chip, and allowed to interact to each FcγR diluted with running buffer. To regenerate and repeatedly use the chip, the antibodies captured on the chip were washed off by reacting 10 mM glycine-HCl, pH 1.5.
The FcγR-binding activity of each antibody was assessed primarily using as an indicator the FcγR-binding activity and dissociation constant for FcγR.

He/Con_2aR	Binder
107 relative, control = 100	B2
104 relative, control = 100	B3
109 relative, control = 100	B4
106 relative, control = 100	B5
104 relative, control = 100	B6
106 relative, control = 100	B7
110 relative, control = 100	B8
102 relative, control = 100	B9
107 relative, control = 100	B10
105 relative, control = 100	B11
109 relative, control = 100	B12
107 relative, control = 100	B13
111 relative, control = 100	B14
109 relative, control = 100	B15
110 relative, control = 100	B16
101 relative, control = 100	B17
113 relative, control = 100	B18
106 relative, control = 100	B19
106 relative, control = 100	B20
105 relative, control = 100	B21
106 relative, control = 100	B22
103 relative, control = 100	B23
100 relative, control = 100	B24

He/Con_2aR	Binder
109 relative, control = 100	B25
150 relative, control = 100	B26
110 relative, control = 100	B27
106 relative, control = 100	B28
103 relative, control = 100	B29
102 relative, control = 100	B30
104 relative, control = 100	B31
102 relative, control = 100	B32
103 relative, control = 100	B33
108 relative, control = 100	B34
102 relative, control = 100	B35
102 relative, control = 100	B36
112 relative, control = 100	B37
105 relative, control = 100	B38
105 relative, control = 100	B39
102 relative, control = 100	B40
105 relative, control = 100	B41
109 relative, control = 100	B42
111 relative, control = 100	B43
106 relative, control = 100	B44
101 relative, control = 100	B45
101 relative, control = 100	B46
115 relative, control = 100	B47

Source: patent publication US20180155451A1 (published 2018)
